Our source for the reverse-splicing fitness values is the RNAGym collection of RNA variant scans (doi:10.1093/molbev/msab373).

B1: Azoarcus group I ribozyme (parent)
chain: GUGCCUUGCGCCGGGAAACCACGCAAGGGAUGGUGUCAAAUUCGGCGAAACCUAAGCGCCCGCCCGGGCGUAUGGCAACGCCGAGCCAAGCUUCGGCGCCUGCGCCGAUGAAGGUGUAGAGACUAGACGGCACCCACCUAAGGCAAACGCUAUGGUGAAGGCAUAGUCCAGGGAGUGGCGAAAGUCACACAAACCGG

In the data set the parent is B1. The experiment in a line: reverse-splicing fitness (ratio to wild type); higher = more active; in vitro selection; Mg2+ level not given. The method, boiled down:
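An in vitro group I ribozyme library with randomized positions was T7-transcribed and gel-purified. In triplicate, 10 pmol RNA in EPPS pH 7.5 was reacted with 50 pmoles of a 30-nt RNA substrate for 1 h at 37 °C across several added MgCl2 levels (1–48 mM), then stopped with EDTA. Products were reverse transcribed from a substrate-complementary primer, PCR-amplified and sequenced (HiSeq 4000). Fitness is a variant's read proportion after selection over that before, normalised to wild type.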
For the variant GUGCCUUGCGCCGGGAAACCACGCAAGGGAUGGUGUCAAAUUCGGCGAAACCUAAGCGCCCGCCCGGGCGUAUGGCAACGCUGAGCCAAGCUUCGGCGCCUGCGCCGAUGAAGGUGUAGCGACUAGACGGCACCCACCUAAGGCGAACGCUAUGGUGAAGGCAUAGUCCAGGGAGUGGCGAAAGUCACACAAACCGG, the reverse-splicing fitness came to 0.169.
In the case of GUGCCUUGCGCCGGGAAACCACGCAAGGGAUGGUGUCAAAUUCGGCGAAACCUAAGCGCCCGCCCGGGCGUAUGGCAACGCUGAGCCAAGCUUCGGCGCCUGCGCCGAUGAAGGUGUAGCGACUAGACGGCACCCACCUAAGGCGAACGAUAUGGUGAAGGCAUAGUCUAGGGAGAGGCGAAAGUCACACAAACCGG it was 0.0136.
Under GUGCCUUGCGCCGGGAAACCACGCAAGGGAUGGUGUCAAAUUCGGCGAAACCUAAGCGCCCGCCCGGGCGUAUGGCAACGCUGAGCCAAGCUUCGGCGCCUGCGCCGAUGAAGGUGUAGCGACUAGACGGCACCCACCUAAGGCGAACGAUAUGGUGAAGGCAUAGUCUAGGGAGGGGCGAAAGUCACACAAACCGG stands 0.0043.
For GUGCCUUGCGCCGGGAAACCACGCAAGGGAUGGUGUCAAAUUCGGCGAAACCUAAGCGCCCGCCCGGGCGUAUGGCAACGCUGAGCCAAGCUUCGGCGCCUGCGCCGAUGAAGGUGUAGCGACUAGACGGCACCCACCUAAGGCGAACGAUAUGGUGAAGGCAUAGUCUAGGGAGCGGCGAAAGUCACACAAACCGG, the reverse-splicing fitness came to 0.0166.
Under GUGCCUUGCGCCGGGAAACCACGCAAGGGAUGGUGUCAAAUUCGGCGAAACCUAAGCGCCCGCCCGGGCGUAUGGCAACGCUGAGCCAAGCUUCGGCGCCUGCGCCGAUGAAGGUGUAGCGACUAGACGGCACCCACCUAAGGCGAACGAUAUGGUGAAGGCAUAGUCGAGGGAGAGGCGAAAGUCACACAAACCGG stands 0.0157; under GUGCCUUGCGCCGGGAAACCACGCAAGGGAUGGUGUCAAAUUCGGCGAAACCUAAGCGCCCGCCCGGGCGUAUGGCAACGCUGAGCCAAGCUUCGGCGCCUGCGCCGAUGAAGGUGUAGCGACUAGACGGCACCCACCUAAGGCGAACGAUAUGGUGAAGGCAUAGUCGAGGGAGCGGCGAAAGUCACACAAACCGG, 0.0219.
For GUGCCUUGCGCCGGGAAACCACGCAAGGGAUGGUGUCAAAUUCGGCGAAACCUAAGCGCCCGCCCGGGCGUAUGGCAACGCUGAGCCAAGCUUCGGCGCCUGCGCCGAUGAAGGUGUAGCGACUAGACGGCACCCACCUAAGGCGAACGAUAUGGUGAAGGCAUAGUCGAGGGAGGGGCGAAAGUCACACAAACCGG, the reverse-splicing fitness amounted to 0.00377.
GUGCCUUGCGCCGGGAAACCACGCAAGGGAUGGUGUCAAAUUCGGCGAAACCUAAGCGCCCGCCCGGGCGUAUGGCAACGCUGAGCCAAGCUUCGGCGCCUGCGCCGAUGAAGGUGUAGCGACUAGACGGCACCCACCUAAGGCGAACGAUAUGGUGAAGGCAUAGUCCAGGGAGGGGCGAAAGUCACACAAACCGG: the reverse-splicing fitness was 0.00716.
Under GUGCCUUGCGCCGGGAAACCACGCAAGGGAUGGUGUCAAAUUCGGCGAAACCUAAGCGCCCGCCCGGGCGUAUGGCAACGCUGAGCCAAGCUUCGGCGCCUGCGCCGAUGAAGGUGUAGCGACUAGACGGCACCCACCUAAGGCGAACGAUAUGGUGAAGGCAUAGUCCAGGGAGCGGCGAAAGUCACACAAACCGG stands 0.0295.
As for GUGCCUUGCGCCGGGAAACCACGCAAGGGAUGGUGUCAAAUUCGGCGAAACCUAAGCGCCCGCCCGGGCGUAUGGCAACGCUGAGCCAAGCUUCGGCGCCUGCGCCGAUGAAGGUGUAGCGACUAGACGGCACCCACCUAAGGCGAACGAUAUGGUGAAGGCAUAGUCCAGGGAGAGGCGAAAGUCACACAAACCGG, the reverse-splicing fitness is 0.0152.
In the case of GUGCCUUGCGCCGGGAAACCACGCAAGGGAUGGUGUCAAAUUCGGCGAAACCUAAGCGCCCGCCCGGGCGUAUGGCAACGCUGAGCCAAGCUUCGGCGCCUGCGCCGAUGAAGGUGUAGCGACUAGACGGCACCCACCUAAGGCGAACGAUAUGGUGAAGGCAUAGUCAAGGGAGGGGCGAAAGUCACACAAACCGG it was 0.00547; in that of GUGCCUUGCGCCGGGAAACCACGCAAGGGAUGGUGUCAAAUUCGGCGAAACCUAAGCGCCCGCCCGGGCGUAUGGCAACGCUGAGCCAAGCUUCGGCGCCUGCGCCGAUGAAGGUGUAGCGACUAGACGGCACCCACCUAAGGCGAACGAUAUGGUGAAGGCAUAGUCAAGGGAGAGGCGAAAGUCACACAAACCGG, 0.0175.
For the variant GUGCCUUGCGCCGGGAAACCACGCAAGGGAUGGUGUCAAAUUCGGCGAAACCUAAGCGCCCGCCCGGGCGUAUGGCAACGCUGAGCCAAGCUUCGGCGCCUGCGCCGAUGAAGGUGUAGCGACUAGACGGCACCCACCUAAGGCGAACGAUAUGGUGAAGGCAUAGUCAAGGGAGCGGCGAAAGUCACACAAACCGG, the reverse-splicing fitness was determined as 0.0203.
Turning to GUGCCUUGCGCCGGGAAACCACGCAAGGGAUGGUGUCAAAUUCGGCGAAACCUAAGCGCCCGCCCGGGCGUAUGGCAACGCUGAGCCAAGCUUCGGCGCCUGCGCCGAUGAAGGUGUAGCGACUAGACGGCACCCACCUAAGGCGAACGGUAUGGUGAAGGCAUAGUCGAGGGAGGGGCGAAAGUCACACAAACCGG, the reverse-splicing fitness stood at 0.00504.
In the case of GUGCCUUGCGCCGGGAAACCACGCAAGGGAUGGUGUCAAAUUCGGCGAAACCUAAGCGCCCGCCCGGGCGUAUGGCAACGCUGAGCCAAGCUUCGGCGCCUGCGCCGAUGAAGGUGUAGCGACUAGACGGCACCCACCUAAGGCGAACGGUAUGGUGAAGGCAUAGUCGAGGGAGCGGCGAAAGUCACACAAACCGG it was 0.0118.
